Results published in article PMC7375816.

Target: Yeast Hsp90 wild-type FRET hetero-dimer (donor 61C + biotinylated acceptor 385C) (yeast | D. melanogaster)

B1: cochaperone Aha1 (natural protein)
chain: MVVNNPNNWHWVDKNCIGWAKEYFKQKLVGVEAGSVKDKKYAKIKSVSSIEGDCEVNQRKGKVISLFDLKITVLIEGHVDSKDGSALPFEGSINVPEVAFDSEASSYQFDISIFKETSELSEAKPLIRSELLPKLRQIFQQFGKDLLATHGNDIQVPESQVKSNYTRGNQKSSFTEIKDSASKPKKNALPSSTSTSAPVSSTNKVPQNGSGNSTSIYLEPTFNVPSSELYETFLDKQRILAWTRSAQFFNSGPKLETKEKFELFGGNVISELVSCEKDKKLVFHWKLKDWSAPFNSTIEMTFHESQEFHETKLQVKWTGIPVGEEDRVRANFEEYYVRSIKLTFGFGAVL
An increase in ATPase activity of Hsp90 in the presence of 3 µM Aha1, normalised to the activity without Aha1 of 17 fold was found for B1 in this work.
